Test results published in IntAct's records for PubMed 21107322.

B1: G2/mitotic-specific cyclin cdc13 (Schizosaccharomyces pombe (strain ATCC 38366 / 972)), P10815 (parent)
chain: MTTRRLTRQHLLANTLGNNDENHPSNHIARAKSSLHSSENSLVNGKKATVSSTNVPKKRHALDDVSNFHNKEGVPLASKNTNVRHTTASVSTRRALEEKSIIPATDDEPASKKRRQPSVFNSSVPSLPQHLSTKSHSVSTHGVDAFHKDQATIPKKLKKDVDERVVSKDIPKLHRDSVESPESQDWDDLDAEDWADPLMVSEYVVDIFEYLNELEIETMPSPTYMDRQKELAWKMRGILTDWLIEVHSRFRLLPETLFLAVNIIDRFLSLRVCSLNKLQLVGIAALFIASKYEEVMCPSVQNFVYMADGGYDEEEILQAERYILRVLEFNLAYPNPMNFLRRISKADFYDIQTRTVAKYLVEIGLLDHKLLPYPPSQQCAAAMYLAREMLGRGPWNRNLVHYSGYEEYQLISVVKKMINYLQKPVQHEAFFKKYASKKFMKASLFVRDWIKKNSIPLGDDADEDYTFHKQKRIQHDMKDEEW
partner: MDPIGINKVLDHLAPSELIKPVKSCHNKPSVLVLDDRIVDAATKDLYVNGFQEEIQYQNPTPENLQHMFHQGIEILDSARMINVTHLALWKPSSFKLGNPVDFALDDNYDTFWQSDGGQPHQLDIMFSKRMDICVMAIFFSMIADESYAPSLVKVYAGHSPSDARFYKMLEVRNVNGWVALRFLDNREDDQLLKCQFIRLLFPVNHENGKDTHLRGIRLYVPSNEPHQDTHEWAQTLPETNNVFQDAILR

Variants of: B1
Details: with apc10_yeast DOC1, P53068

Variant | effect of a mutation on the interaction
MTTRRLTRQHLLANTLGNNDENHPSNHIARAKSSLHSSENSLVNGKKATVSSTNVPKKAHAADDASAFHNKEGVPLASKNTNVRHTTASVSTRRALEEKSIIPATDDEPASKKRRQPSVFNSSVPSLPQHLSTKSHSVSTHGVDAFHKDQATIPKKLKKDVDERVVSKDIPKLHRDSVESPESQDWDDLDAEDWADPLMVSEYVVDIFEYLNELEIETMPSPTYMDRQKELAWKMRGILTDWLIEVHSRFRLLPETLFLAVNIIDRFLSLRVCSLNKLQLVGIAALFIASKYEEVMCPSVQNFVYMADGGYDEEEILQAERYILRVLEFNLAYPNPMNFLRRISKADFYDIQTRTVAKYLVEIGLLDHKLLPYPPSQQCAAAMYLAREMLGRGPWNRNLVHYSGYEEYQLISVVKKMINYLQKPVQHEAFFKKYASKKFMKASLFVRDWIKKNSIPLGDDADEDYTFHKQKRIQHDMKDEEW [R59A;L62A;V65A;N67A] | decreasing interaction
